Results as given in US11123408B2, “Compositions and methods for treating nonsteroidal anti-inflammatory drug (NSAID) associated coagulopathy, thrombocytopenia, glanzmann's thrombasthenia, and/or thrombosis” (YALE UNIVERSITY, priority 2011, dated 2021).
Entries after “also recorded” stand apart in the source; their conditions may differ.

Columns and labels:
Assay type in all cases: cell-based, human
[1] = test system: platelets in platelet rich plasma; assay: Light transmission aggregometry (LTA) in platelet rich plasma
Procedure: (§1) Whole blood from healthy voluntary donors was collected in accordance with an IRB-approved protocol into blue top vacutainer tubes containing 3.2% sodium citrate. Blood was centrifuged at 1000 RPM for 10 minutes at room temperature to collect platelet rich plasma (PRP). PRP in the supernatant was then transferred to fresh tubes, and the remainder of the specimen was centrifuged at 4000 RPM for 10 minutes to obtain platelet poor plasma (PPP). PRP was adjusted to a final platelet count of 250×10^6 platelets/mL with autologous PPP for use in aggregation studies. Potential donors were excluded if there was a history of a bleeding disorder or current anticoagulant use and donors were instructed to avoid NSAIDs for at least 7 days prior to donation. Approval for the human subjects involved in this research was sought and granted by the Committee for the Protection of Human Subjects, Dartmouth-Hitchcock Medical Center, where these studies were conducted in accordance with the Declaration of Helsinki.
(§2) Light transmission (i.e., optical) and lumi aggregometry were performed on up to four samples from the same individual simultaneously with a Chrono-Log Model 700 Whole Blood/Optical Lumi Aggregometer (Chrono-Log Corporation, Havertown, Pa.) using procedures provided by the manufacturer that are briefly summarized here.
(§3) Platelet aggregation was determined by measuring the change in light transmittance of stirred PRP over time after addition of various agonists. Prior to each experiment the aggregometer was standardized to reflect 100% and 0% light transmittance with PPP and PRP, respectively, from the donor whose platelets were used in each specific experiment. 500 μL PRP was added to cuvettes containing a magnetic stir bar and allowed to pre-warm to 37° C. in the aggregometer wells for 3 minutes prior to initiating aggregation reactions which were then conducted at 37° C. Aggregation reactions were initiated by direct addition of agonists and/or enzymes to warmed, stirred PRP, and were monitored for an increase in light transmittance for 10 minutes. The increase in light transmittance is directly proportional to the amount of aggregation and is amplified and digitized into a computer (HP Compaq, Hewlett-Packard, Palo Alto, Calif.) with the AGGRO/LINK8 for Windows software (Chrono-Log Corporation, Havertown, Pa.) to generate aggregation curves. […] The platelet aggregometry experiments for all concentrations of MRS 2395 (including the 0 μM point) were conducted with the plasma adjusted to a final concentration of 10% DMSO to solubilize the inhibitor.

[2] = test system: platelets in platelet rich plasma; assay: Lumi aggregometry (extracellular ATP, dense granule release) simultaneously with LTA
Procedure: as §1, §2, §3
In a subgroup of experiments, lumi aggregometry was used to assay the levels of extracellular ATP simultaneously with LTA. Lumi aggregometry measures ATP in the extracellular space over time using a sensitive luminescent assay employing firefly luciferin-luciferase (CHRONO-LUME™ reagent, Chrono-Log Corporation, Havertown, Pa.). ATP binds to luciferin-luciferase and generates light that is then amplified by a high-gain photomultiplier tube in the lumi aggregometer and is measured simultaneously with the optical change in light transmittance caused by platelet aggregation. In experiments in which lumi aggregometry was performed, 450 μL of PRP was transferred to cuvettes containing magnetic stir bars and allowed to pre-warm to 37° C. in the aggregometer wells for 3 minutes. […] Reactions were initiated by the addition of agonists and/or enzymes to warmed PRP and CHRONOLUME′ reagent and were monitored for light generation. […]

[3] = test system: platelets exposed to NSAIDs; assay: LTA in platelet-rich plasma from an individual who had consumed ibuprofen; conditions: 20 nM NPP4; 3 μM ADP; donor took 800 mg ibuprofen 12 hours before
Procedure: as §3
(§4) NPP4 rescues platelets exposed to NSAIDs. […]

[4] = test system: platelets of a patient donor with a mild platelet storage pool disorder; assay: LTA in platelet rich plasma of a patient donor with a mild platelet storage pool disorder; conditions: 50 nM NPP4; 2.5 μM ADP; without NPP4 approximately 40%
Procedure: as §3, §4

B1: NPP4: soluble recombinant extracellular domain of human NPP4 (NCBI AAH18054.1, residues 1-407 of SEQ ID NO:1), expressed in insect cells (protein, listed as Homo sapiens)
chain: MKLLVILLFSGLITGFRSDSSSSLPPKLLLVSFDGFRADYLKNYEFPHLQNFIKEGVLVEHVKNVFITKTFPNHYSIVTGLYEESHGIVANSMYDAVTKKHFSDSNDKDPFWWNEAVPIWVTNQLQENRSSAAAMWPGTDVPIHDTISSYFMNYNSSVSFEERLNNITMWLNNSNPPVTFATLYWEEPDASGHKYGPEDKENMSRVLKKIDDLIGDLVQRLKMLGLWENLNVIITSDHGMTQCSQDRLINLDSCIDHSYYTLIDLSPVAAILPKINRTEVYNKLKNCSPHMNVYLKEDIPNRFYYQHNDRIQPIILVADEGWTIVLNESSQKLGDHGYDNSLPSMHPFLAAHGPAFHKGYKHSTINIVDIYPMMCHILGLKPHPNNGTFGHTKCLLVDQWCINLPEA
maximum aggregation ([1]; 100 nM NPP4 at 80 μM Ap3A): 80%
maximum aggregation ([1]; 200 nM NPP4 at 80 μM Ap3A): 90%
platelet aggregation response of enzyme in the presence of 80 μM Ap3A (qualitative) ([1]; 80 μM Ap3A, enzyme 50-200 nM): strong primary and secondary aggregation waves
platelet aggregation response, agent alone (qualitative) ([1]; agent alone in PRP (Ap3A up to 160 μM; NPP4 100 nM)): does not trigger platelet aggregation
time to granule release ([2]; 100 nM NPP4 with 40 μM Ap3A): ~1.5 min
platelet aggregation and dense granule (ATP) release, enzyme with Ap3A (qualitative) ([2]; 100 nM enzyme with 40 μM Ap3A): ATP release and platelet aggregation were simultaneously seen; also recorded: strong platelet aggregation and dense granule release
effect on ADP-induced aggregation of NSAID-exposed platelets [3]: normalization of ADP-induced aggregation
maximum amplitude of aggregation [4]: approximately 65%
